# Data as given in PMC2647307.
# System: C.PvuII
# Experiment: competition
# Settings: scale: % loss of shifted WT band at 10-fold excess competitor
row,Substance,binding signal
1,Sym CAA/CAA 126-mer,90
2,Sym CAT/CAA 126-mer,30
3,Sym CAT/CAT 126-mer,30
4,Sym CAA/CAT 126-mer,90
